Data from paper PMC2174252 (The Journal of Cell Biology, 1999).

Molecular target: mouse ZO-1 expressed in Sf21 insect cells (mouse, UniProt P39447 1-1745)
Experiment: pull-down

Sequence of mouse ZO-1 expressed in Sf21 insect cells (P39447 whole entry): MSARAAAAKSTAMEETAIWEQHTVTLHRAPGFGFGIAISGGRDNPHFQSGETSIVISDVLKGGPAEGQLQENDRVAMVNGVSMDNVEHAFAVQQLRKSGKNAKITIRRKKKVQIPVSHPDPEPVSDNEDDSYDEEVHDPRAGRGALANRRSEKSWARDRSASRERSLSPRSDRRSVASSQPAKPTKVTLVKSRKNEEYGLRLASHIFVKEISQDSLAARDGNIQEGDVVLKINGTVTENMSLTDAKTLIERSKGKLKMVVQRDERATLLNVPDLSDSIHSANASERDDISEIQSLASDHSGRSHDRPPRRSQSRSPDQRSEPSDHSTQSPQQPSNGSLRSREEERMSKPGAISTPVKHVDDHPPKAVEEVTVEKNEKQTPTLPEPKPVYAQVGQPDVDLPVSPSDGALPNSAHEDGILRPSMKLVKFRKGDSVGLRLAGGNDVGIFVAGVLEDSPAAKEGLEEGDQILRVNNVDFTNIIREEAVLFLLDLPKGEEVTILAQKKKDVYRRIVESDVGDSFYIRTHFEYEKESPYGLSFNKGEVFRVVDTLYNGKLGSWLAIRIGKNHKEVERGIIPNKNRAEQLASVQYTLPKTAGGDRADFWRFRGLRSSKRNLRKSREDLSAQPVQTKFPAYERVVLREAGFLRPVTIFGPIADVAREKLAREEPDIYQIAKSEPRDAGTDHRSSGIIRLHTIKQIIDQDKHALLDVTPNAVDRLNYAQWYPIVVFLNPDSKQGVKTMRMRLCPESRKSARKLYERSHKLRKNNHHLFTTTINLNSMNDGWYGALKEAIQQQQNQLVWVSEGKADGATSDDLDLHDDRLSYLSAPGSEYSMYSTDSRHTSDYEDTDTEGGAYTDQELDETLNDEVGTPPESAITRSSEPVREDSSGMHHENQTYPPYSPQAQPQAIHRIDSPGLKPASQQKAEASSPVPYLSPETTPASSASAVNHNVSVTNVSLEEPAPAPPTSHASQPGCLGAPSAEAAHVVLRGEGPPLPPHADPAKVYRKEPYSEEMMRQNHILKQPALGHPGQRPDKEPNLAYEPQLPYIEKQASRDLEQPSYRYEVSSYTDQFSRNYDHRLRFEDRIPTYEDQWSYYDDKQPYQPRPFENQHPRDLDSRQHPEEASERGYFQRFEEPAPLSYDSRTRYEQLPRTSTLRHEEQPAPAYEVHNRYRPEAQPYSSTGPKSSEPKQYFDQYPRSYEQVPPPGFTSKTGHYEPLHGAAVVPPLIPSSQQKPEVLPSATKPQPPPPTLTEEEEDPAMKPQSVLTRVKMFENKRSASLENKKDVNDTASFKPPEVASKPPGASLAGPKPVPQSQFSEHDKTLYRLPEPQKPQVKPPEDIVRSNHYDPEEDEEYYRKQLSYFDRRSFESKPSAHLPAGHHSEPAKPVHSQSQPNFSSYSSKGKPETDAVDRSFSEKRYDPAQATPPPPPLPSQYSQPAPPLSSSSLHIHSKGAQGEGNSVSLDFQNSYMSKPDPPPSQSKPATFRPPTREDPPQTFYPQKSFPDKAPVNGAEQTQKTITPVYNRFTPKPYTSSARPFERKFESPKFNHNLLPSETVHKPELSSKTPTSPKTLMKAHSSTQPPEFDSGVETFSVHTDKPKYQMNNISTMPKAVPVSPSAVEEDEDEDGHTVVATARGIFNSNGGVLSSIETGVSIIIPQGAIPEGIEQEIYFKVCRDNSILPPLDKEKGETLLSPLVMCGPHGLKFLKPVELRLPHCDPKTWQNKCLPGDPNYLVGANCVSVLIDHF

B1: GST-XC(1-378), GST fused to Xenopus laevis cingulin residues 1-378 (domain or fragment, UniProt Q9PTD7 1-378, looked up)
chain: MERDIYGDMADQHIPVGQGVQIRFIGDLKENGKPRGKRSKQDSYGVAVRVQGIDGQPFVVLNSGDKAKSSFGVQIKSQEPYLNASNTSPPNYQNYSSKPRGPSRSISSESELPENPYGSRGYRPSSSHYSSASDEEQKPRGNIRGSDGLSSLPRPLQASRREELRRSQSHSSLLEPDVEESYDYDHHYSERSSTLDTTYSQSSRDSAWSRSSQKKIDNGDYPSLGYRSATSQQSTSVSNKTKKNGLSTSSPSNQSNEDIDTKPLSSVDSLINKFDIKGQVRGRTARRSQALKDERKRSQSLDGRKNYHDTADSREIIVEKQNEVQTMREPVNASNRSFNRQTLERGDISKTRLTKEWLDQDREEPVILKQQRTVQSEF
- Kd: ~5 nM
